Experimental data: patent US20150239950A1 (SALK INSTITUTE FOR BIOLOGICAL STUDIES, published 2015)
Residue numbers refer to the chain shown, from its start. Read-outs that look alike come from different tables or passages of the source.

T1: BMP6 homodimer (mature domain of human BMP6, residues 1-132) (human, UniProt P22004 382-513)
T1 sequence: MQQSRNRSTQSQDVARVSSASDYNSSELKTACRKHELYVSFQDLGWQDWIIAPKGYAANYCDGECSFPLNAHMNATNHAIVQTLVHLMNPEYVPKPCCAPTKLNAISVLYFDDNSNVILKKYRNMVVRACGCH

B1: AB2-011 (1b2b3b4b5a6a activin/BMP-2 chimera) (ligand)
chain: MQAKHQQRKRLKSSCKRHPLYVDFSDVGWNDWIVAPPGYHAFYCHGECPFPLADHLNSTNHAIVQTLVNSVNSKIPKACCVPTKLRPSMLYYDDGQNIIKKDIQNMIVEECGCS
B2: AB2-008 (1b2a3a4a5a6a activin/BMP-2 chimera) (ligand)
chain: MQAKHKQRKRLKSSCKRHPLYVDFSDVGWNDWIIAPSGYHANYCEGECPSHIAGTSGSSLSFHSTLVNHYRMRGHSPFANLKSCCVPTKLRPMSMLYYDDGQNIIKKDIQNMIVEECGCS
notes: The entry includes the initiator Met
B3: AB2-015 (1b2a3b4b5b6a activin/BMP-2 chimera) (ligand)
chain: MQAKHKQRKRLKSSCKRHPLYVDFSDVGWNDWIIAPSGYHANYCDGECPFPLADHLNSTNHAIVQTLVNSVNSKIPKACCVPTELSAISMLYYDDGQNIIKKDIQNMIVEECGCS
B4: AB2-012 (1b2b3b4b5b6a activin/BMP-2 chimera) (ligand)
chain: B3 chain with I34V, S37P, N42F, D45H, Q97R
B5: AB2-004 (1b2a3b4b5a6a activin/BMP-2 chimera) (ligand)
chain: B3 chain with E84K, S86R, A87P, I88M
B6: Activin-βA (ligand)
chain: GLECDGKVNICCKKQFFVSFKDIGWNDWIIAPSGYHANYCEGECPSHIAGTSGSSLSFHSTVINHYRMRGHSPFANLKSCCVPTKLRPMSMLYYDDGQNIIKKDIQNMIVEECGCS
notes: also called Activin-A
B7: BMP2/BMP6 heterodimer (ligand)
chain 1: QAKHKQRKRLKSSCKRHPLYVDFSDVGWNDWIVAPPGYHAFYCHGECPFPLADHLNSTNHAIVQTLVNSVNSKIPKACCVPTELSAISMLYLDENEKVVLKNYQDMVVEGCGCR
chain 2: T1 sequence
notes: also called B2/B6
B8: BMP2 homodimer (mature domain of human BMP2) (ligand)
chain: B7 chain 1
notes: also called BMP-2wt; BMP-2ma
B9: ActRIIb-ECD (extracellular domain of mouse ActRIIb, residues 1-98) (receptor, UniProt P27040 19-137, looked up)
chain: SGRGEAETRECIYYNANWELERTNQSGLERCEGEQDKRLHCYASWRNSSGTIELVKKGCWLDDFNCYDRQECVATEENPQVYFCCCEGNFCNERFTHLPEPGGPEVTYEPPPTAPTLLT
notes: extracellular domain; also called type II receptor ECD
B10: BMPRIa-ECD (extracellular domain of human BMPRIa, residues 1-129) (receptor, UniProt P36894 24-152, looked up)
chain: QNLDSMLHGTGMKSDSDQKKSENGVTLAPEDTLPFLKCYCSGHCPDDAINNTCITNGHCFAIIEEDDQGETTLASGCMKYEGSDFQCKDSPKAQLRRTIECCRTNLCNQYLQPTLPPVVIGPFFDGSIR
notes: extracellular domain; also called type I receptor ECD

Assays:
[1] = target: T2, ActRII-ECD (extracellular domain of mouse ActRII, residues 1-102) (mouse, UniProt P27038 20-135); assay: SPR (BIAcore), receptor ECD immobilized, ligand flowed; KD = koff/kon; single trial
T2 construct: extracellular domain; also called type II receptor ECD
T2 sequence (P27038 20-135): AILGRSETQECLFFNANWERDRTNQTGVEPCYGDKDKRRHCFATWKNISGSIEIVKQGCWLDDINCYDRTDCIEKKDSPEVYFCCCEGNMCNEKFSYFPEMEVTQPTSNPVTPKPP
Experimental: (§1) The receptors were immobilized to the chip surface with the ligands flowed over the surface. The data were fit to a kinetic model (1:1 Langmuir binding with mass transfer) in which KD is calculated as koff/kₒₙ. The table reports data from a single trial.

[2] = target: T2, ActRII-ECD (extracellular domain of …); assay: SPR (BIAcore), receptor ECD immobilized, ligand flowed; 1:1 Langmuir with mass transfer; single trial
Experimental: as §1

[3] = target: T2, ActRII-ECD (extracellular domain of …); assay: SPR (BIAcore), receptor ECD immobilized
[4] = target: T2, ActRII-ECD (extracellular domain of …); assay: SPR (BIAcore), receptor ECD immobilized, ligand flowed; 1:1 Langmuir with mass transfer; single trial; remark: listed apart in the source
Experimental: as §1

[5] = target: B10; assay: SPR (BIAcore), receptor ECD immobilized, ligand flowed; 'No Binding indicates that the interaction was not detectable'
Experimental: as §1

[6] = target: T2, ActRII-ECD (extracellular domain of …); assay: SPR (BIAcore), receptor ECD immobilized, ligand flowed; KD = koff/kon; single trial; remark: listed apart in the source
Experimental: as §1

[7] = target: Cripto (mouse Cripto construct transfected into HEK293T cells) (mouse) (UniProt P51865); assay: cell-based or functional assay
Cripto (mouse Cripto construct transfected into HEK293T cells) (mouse), sequence (P51865 18-134): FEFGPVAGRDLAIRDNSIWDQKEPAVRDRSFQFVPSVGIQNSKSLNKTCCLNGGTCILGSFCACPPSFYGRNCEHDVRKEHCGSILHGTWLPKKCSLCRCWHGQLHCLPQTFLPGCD

[8] = target: T2, ActRII-ECD (extracellular domain of …); assay: native-PAGE receptor ECD saturation assay, 5 µg ActRII-ECD with 10 µg ligand, Coomassie densitometry
[9] = target: B9; assay: SPR (BIAcore), receptor ECD immobilized, ligand flowed; KD = koff/kon
Experimental: (§2) The affinity of the ligands to BMPRIa, ActRII, and ActRIIb was monitored by using a Biacore 3000 (GE Healthcare) and the data were analyzed by using BlAevaluation software ver. 4.1 (GE Healthcare). Using primary amine coupling, receptor ECDs were immobilized on a CM5 chip. The receptors were immobilized independently on flow cells 2-4 for 10 minutes at a flow rate of 5 μL/min and a concentration of 20 μM in 10 mM Na acetate, pH 4.0. Flow cell 1 was left blank, no immobilized protein, as a negative control. […] A minimum of five concentrations, plus a zero concentration, were run per sample for kinetic analysis and the data were fit by using a global 1:1 Langmuir binding with mass transfer.
(§3) Ligand affinity data from BIAcore experiments. The BIAcore data is shown as the dissociation rate, koff, and the association rate, kₒₙ, based on a global fit using the kinetic model 1:1 Langmuir binding with mass transfer. The binding constant KD is calculated as koff/kₒₙ. The receptors were immobilized to the chip surface, with the ligands flowed over the surface.

[10] = target: B9; assay: SPR, receptor binding affinity
[11] = target: T1, BMP6 homodimer (mature domain of human …); assay: SPR (BIAcore), receptor ECD immobilized, ligand flowed; KD = koff/kon
Experimental: as §2, §3

BMP2/BMP6 heterodimer [12] = target: B7; assay: as above
Experimental: as §2, §3

[13] = target: T1, BMP6 homodimer (mature domain of human …); assay: SPR (BIAcore), receptor ECD immobilized, ligand flowed; 1:1 Langmuir with mass transfer
Experimental: as §2, §3

[14] = target: T1, BMP6 homodimer (mature domain of human …); assay: SPR, receptor binding affinity
BMP2/BMP6 heterodimer [15] = target: B7; assay: SPR, receptor binding affinity

B1 was tested. Which Kd [1] did it give?
The Kd was 0.525 nM.

And the koff [2]?
The koff was 0.000339 s⁻¹.

What about the kon [2] of the same binder?
Its kon is 646000 M⁻¹ s⁻¹.

What does the source list for B2?
fold weaker affinity against activin-βA [3]: ~1.7 fold; koff [4]: 0.000824 s⁻¹; kon [4]: 2.39e+06 M⁻¹ s⁻¹; binding result [5]: no binding; Kd [6]: 0.344 nM

B3 was tested. Which “fold higher binding against BMP-2” value [3] did it give?
The value was roughly 100 fold.

Does B3 bind [5]?
Result: no binding

What about the Kd [1] of the same binder?
Its Kd is 0.23 nM.

What about the koff [2] of the same binder?
Its koff is 0.000371 s⁻¹.

What about the kon [2] of the same binder?
The kon was 1.61e+06 M⁻¹ s⁻¹.

Which results are given for B4?
Kd [1]: 0.472 nM; koff [2]: 0.0016 s⁻¹; kon [2]: 3.39e+06 M⁻¹ s⁻¹

Which Kd [1] does the source give for B5 here?
Its Kd is 0.381 nM.

What about the koff [2] of the same binder?
Its koff is 0.000187 s⁻¹.

What about the kon [2] of the same binder?
The kon was 491000 M⁻¹ s⁻¹.

Which results are given for B6?
koff [4]: 0.000716 s⁻¹; kon [4]: 3.52e+06 M⁻¹ s⁻¹; binding result [5]: no binding; decrease in Smad-2/3 luciferase signaling in HEK293T cells in the presence of Cripto [7]: 43%; Kd [1]: 0.203 nM; koff [2]: 0.000716 s⁻¹; kon [2]: 3.52e+06 M⁻¹ s⁻¹; Kd [6]: 0.203 nM

For B7, which “fold decrease of the free type II receptor ECD band intensity against receptor ECD alone” value [8] is on record?
Its value is 9 fold.

Which results are given for B8?
Kd [9]: 38.5 nM; Kd [10]: 38.5 nM; Kd [1]: 36.8 nM

B9 was tested. Which Kd [11] did it give?
Its Kd is 6.68 nM.

And the Kd (BMP2/BMP6 heterodimer [12])?
Its Kd is 6.52 nM.

What about the koff [13] of the same binder?
The koff was 0.00182 s⁻¹.

What about the kon [13] of the same binder?
Its kon is 273000 M⁻¹ s⁻¹.

What about the Kd [14] of the same binder?
Its Kd is 6.68 nM.

What about the koff [14] of the same binder?
The koff was 0.00182 s⁻¹.

What about the kon [14] of the same binder?
The kon was 273000 M⁻¹ s⁻¹.

And the Kd (BMP2/BMP6 heterodimer [15])?
Its Kd is 6.52 nM.

What about the koff (BMP2/BMP6 heterodimer [15]) of the same binder?
The koff was 0.00861 s⁻¹.

And the kon (BMP2/BMP6 heterodimer [15])?
Its kon is 1.32e+06 M⁻¹ s⁻¹.

With B10 as the binder, how does the Kd [11] read?
Its Kd is 62.8 nM.

And the Kd [14]?
The Kd was 62.8 nM.
